Source: patent US20040001839A1, “Multimers - isolated molecules comprising epitopes containing sulfated moieties, antibodies to such epitopes, and uses thereof” (priority 2000, published 2004)
No end group written: not given here. *: point of attachment. sulfate = O=S(=O)(O)*

T1: PSGL-1 on KG-1 cells (human) (UniProt Q14242)
T1 sequence (sulfated tyrosine residues at the N-terminal site, looked up): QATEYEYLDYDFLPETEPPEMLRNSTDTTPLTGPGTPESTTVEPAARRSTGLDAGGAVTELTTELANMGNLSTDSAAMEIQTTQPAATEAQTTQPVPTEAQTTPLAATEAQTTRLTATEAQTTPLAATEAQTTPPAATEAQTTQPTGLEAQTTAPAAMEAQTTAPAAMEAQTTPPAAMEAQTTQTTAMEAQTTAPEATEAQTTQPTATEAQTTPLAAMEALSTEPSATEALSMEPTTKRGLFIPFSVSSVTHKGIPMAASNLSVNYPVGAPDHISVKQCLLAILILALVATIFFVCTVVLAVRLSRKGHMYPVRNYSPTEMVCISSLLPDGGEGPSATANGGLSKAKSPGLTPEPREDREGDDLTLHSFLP


Experiments:
Y1 scFv [1] = assay: competition ELISA: Y1 0.25 µg/well preincubated with peptide at 0.5 µM, residual binding to glycocalicin; settings: remark: other sources report otherwise
Y1 scFv, sequence (chain, as listed by the source): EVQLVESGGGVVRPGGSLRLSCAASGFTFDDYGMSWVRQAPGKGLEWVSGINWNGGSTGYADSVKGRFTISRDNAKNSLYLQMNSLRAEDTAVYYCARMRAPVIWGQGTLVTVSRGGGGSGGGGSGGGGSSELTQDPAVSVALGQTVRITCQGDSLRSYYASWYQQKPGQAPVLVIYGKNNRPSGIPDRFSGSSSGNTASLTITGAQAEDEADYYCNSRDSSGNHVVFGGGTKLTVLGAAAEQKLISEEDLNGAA

Y1 scFv [2] = assay: competition ELISA: Y1 0.25 µg/well preincubated with peptide at 2.5 µM, residual binding to glycocalicin; settings: remark: other sources report otherwise
Y1 scFv [3] = assay: competitive FACS: Y1-scFv 1 µg preincubated with peptide at 2.5 µM, residual binding to washed platelets; settings: remark: other sources report otherwise
Y1 scFv [4] = assay: competition ELISA: Y1 0.25 µg/well preincubated with peptide at 25 µM, residual binding to glycocalicin; settings: remark: other sources report otherwise
Y1 scFv [5] = assay: competition ELISA: Y1 0.25 µg/well preincubated with peptide at 200 µM, residual binding to glycocalicin; settings: remark: other sources report otherwise
Y1 scFv [6] = assay: competitive FACS: Y1-scFv 1 µg preincubated with peptide at 200 µM, residual binding to washed platelets; settings: remark: other sources report otherwise
[7] = biological target: T1, PSGL-1 on KG-1 cells (human); assay: FACS, KG-1 cells, 5 ng tetramers
[8] = biological target: T1, PSGL-1 on KG-1 cells (human); assay: FACS on KG-1 cells
[9] = biological target: T1, PSGL-1 on KG-1 cells (human); assay: FACS, KG-1 cells

Row | Residual Binding of Y1 (% of baseline) (Y1 scFv [1]) | Residual Binding of Y1 (% of baseline) (Y1 scFv [2]) | Residual Binding of Y1 (% of baseline) (Geo Mean) (Y1 scFv [3]) | Residual Binding of Y1 (% of baseline) (Y1 scFv [4]) | Residual Binding of Y1 (% of baseline) (Y1 scFv [5]) | Residual Binding of Y1 (% of baseline) (Geo Mean) (Y1 scFv [6]) | fold higher response than other Y1 antibody forms [7] | fold increase in sensitivity of the binding [8] | fold more reactive [9] | Binder
1 | 89% | 62% | 41% | 25% | 0% | 5% | – | – | – | GDEGDTDLY(sulfate)DY(sulfate)Y(sulfate)PEEDTE [P-1-S]
2 | – | – | – | – | – | – | 10 to 20 fold | > 100 fold | > 100 fold | Y1-biotag tetramers with streptavidin-PE (protein, part only; not given: streptavidin-PE carrier, not shown: another chain or arm of the molecule; large carriers; small tags and cut ends, Each chain pos 251: Lys of the BirA tag carries biotin, written K. The four chains are held non-covalently on streptavidin conjugated to phycoerythrin, which is not given.) scFv 1: MEVQLVESGGGVVRPGGSLRLSCAASGFTFDDYGMSWVRQAPGKGLEWVSGINWNGGSTGYADSVKGRFTISRDNAKNSLYLQMNSLRAEDTAVYYCARMRAPVIWGQGTLVTVSRGGGGSGGGGSGGGGSSELTQDPAVSVALGQTVRITCQGDSLRSYYASWYQQKPGQAPVLVIYGKNNRPSGIPDRFSGSSSGNTASLTITGAQAEDEADYYCNSRDSSGNHVVFGGGTKLTVLGGGGLNDIFEAQKIEWHE scFv 2: MEVQLVESGGGVVRPGGSLRLSCAASGFTFDDYGMSWVRQAPGKGLEWVSGINWNGGSTGYADSVKGRFTISRDNAKNSLYLQMNSLRAEDTAVYYCARMRAPVIWGQGTLVTVSRGGGGSGGGGSGGGGSSELTQDPAVSVALGQTVRITCQGDSLRSYYASWYQQKPGQAPVLVIYGKNNRPSGIPDRFSGSSSGNTASLTITGAQAEDEADYYCNSRDSSGNHVVFGGGTKLTVLGGGGLNDIFEAQKIEWHE scFv 3: MEVQLVESGGGVVRPGGSLRLSCAASGFTFDDYGMSWVRQAPGKGLEWVSGINWNGGSTGYADSVKGRFTISRDNAKNSLYLQMNSLRAEDTAVYYCARMRAPVIWGQGTLVTVSRGGGGSGGGGSGGGGSSELTQDPAVSVALGQTVRITCQGDSLRSYYASWYQQKPGQAPVLVIYGKNNRPSGIPDRFSGSSSGNTASLTITGAQAEDEADYYCNSRDSSGNHVVFGGGTKLTVLGGGGLNDIFEAQKIEWHE scFv 4: MEVQLVESGGGVVRPGGSLRLSCAASGFTFDDYGMSWVRQAPGKGLEWVSGINWNGGSTGYADSVKGRFTISRDNAKNSLYLQMNSLRAEDTAVYYCARMRAPVIWGQGTLVTVSRGGGGSGGGGSGGGGSSELTQDPAVSVALGQTVRITCQGDSLRSYYASWYQQKPGQAPVLVIYGKNNRPSGIPDRFSGSSSGNTASLTITGAQAEDEADYYCNSRDSSGNHVVFGGGTKLTVLGGGGLNDIFEAQKIEWHE
